Data: patent US20190175515A1, “CHOLESTERYL ESTER VESICLES LOADING PEPTIDES, PROTEINS AND NUCLEIC ACIDS INTO CHYLOMICRONS AND BODY CELLS” (priority 2016, published 2019)
Residues, ends and D or L forms follow the SMILES beside them. *: point of attachment. Cbz = O=C(OCc1ccccc1)*

Key:
MCF-7 cells [1] = assay: FITC cholestosome (myristate/palmitate) uptake in MCF-7 cells, fluorescent imaging; format: cell-based, human
Protocol: In this experiment, 22 ug of FITC formulation was placed on MCF-7 cells, Fluorescent imaging was performed over time, with images taken at 2, 4, 8 and 24 hours.

melanoma = settings: patients with melanoma; cited from earlier work
[2] = Eligen proteinaceous coating and SNAC; cited from earlier work
[3] = format: in vivo; settings: rats
Protocol: These experiments were conducted to evaluate the comparative plasma and tissue to plasma ratios of insulin between a cholesterol-encapsulated insulin formulation (cholestosome-insulin) administered by oral gavage and by subcutaneous injection, both compared with the same insulin administered subcutaneously (s.c.) In healthy female Wistar rats.
This study was designed for comparison of insulin bioavailability from the formulations administered, which is defined by the Area under the curve (AUC) calculated as the ratio of Oral to […] over 24 hours following the dosing of the formulation,
Sixteen healthy female Wistar rats ranging from 246.5 to 292.8 g in body weight were distributed into three study groups. Two 6-rat cohorts were dosed with cholestosome insulin oral and SC injection and the remaining 4 rats were given subcutaneous regular insulin as controls. Each rat was dosed with 1.0 ml/animal of a solution identified by Sponsor with cage number and rat number only. Two groups of female Wistar rats were fasted, ranging in duration from 3 hr prior—to 1 hr post-dosing. Rats had free access to water at all times. […] Rats were monitored daily for mortality and morbidity, including signs of hypoglycemia. […]
Results. […] All AUG values were corrected for actual dose given (subtracting residual returned) and expressed as AUG to a dose of 0.25 units, which was approximately 1 unit/kg of body weight. […]

[4] = Temperature stability of insulin; format: physicochemical
Protocol: Once there is the addition of the aqueous molecule or construct, the mixture is sonicated until there is a cloudy solution formed, thereby minimizing waste from un-dissolved esters, with sonication providing energy for unilamellar vesicle formation. The aqueous component is also maintained at the target temperature prior to its addition, and as stated previously for most peptides, proteins and genes, the highest temperature that can be tolerated is only about 45-50° C.
On the basis of these finding and considering the stability of the proteins and peptides being formulated, including insulin by way of example, the operating temperature of encapsulation procedures was kept,between 40 and 55 degrees centigrade. […] By way of example, optimal insulin preparation was at 37-55 degrees centigrade.

[5] = Insulin solubility and integrity versus pH (HPLC); format: physicochemical
Protocol: Many preparations of cholestosome insulin have been made. […] Accordingly, the solubility limits of Insulin were empirically tested at pH 3.5, 6, 7 and 8. Data on the […] of each formulation are plotted by pH of the insulin solution are plotted at two different ionic strengths of PBS buffer in FIG. 9.
The maximum concentration at each tested pH was applied to the following: Stock solutions for each pH and ionic strength combination are prepared. The empirically determined maximum concentration of Human Recombinant Insulin (SAFC Biosciences and. ProSpec) was added to the stock solution. These stock solutions were then readjusted to the desired pH using either 1M HCl or 1M NaOH as needed 5.0 ml of stock solution was heated to 55° C. and used as the aqueous component in preparations.

[6] = rats, chitosan nanoparticles; cited from earlier work
MCF-7 cells [7] = assay: Pilot study of MG-132 on MCF-7 cells exposed to 1117 insulin-cholestosomes; format: cell-based, human
Protocol: A pilot study was performed whereby […] to MCF -7 cells that were also exposed to 1117 insulin-cholestosomes.

Protocol for Caco-2 cells: Caco-2 intestinal epithelial cells were gown in Dulbecco's Modified Eagle's Media (DMEM) supplemented with 20% fetal bovine serum (heat inactivated), 1 nM sodium pyruvate, 100 U/ml penicillin, 100 μg/ml streptomycin, 292 μg/ml L-Glutamine and 1× MEM non-essential amino acids (Invitrogen, #11140). Cells were cultured in 75 cm^2 flasks and incubated in a 37° C. and 5% CO2 environment until 80-90% confluent. The Biocoat HTS Caco-2 assay system (Becton Dickson, #0354802) was used for transport studies. Cells were seeded at a density of 3×10^5 cells/well and differentiated into enterocyte-like cells using, the manufacturer's protocol. This system used a special fibrillar collagen insert and a serum free differentiation medium enhanced with butyric acid, hormones, growth factors and metabolites to establish a differentiated monolayer in 3 days instead of the 21 days that is normally required for this process. This involved incubation of the cells with a DMEM based media containing 10% FBS for 48 hours at 37° C., 5% CO2 after seeding to establish a growth phase. The media was then replaced by the defined differentiation media and incubated for another 48 hours. At this point the Caco-2 cells are ready for further studies.
The differentiated Caco-2 cells were used for the production of Chylomicrons using the method of Luchoomun and Hussain-1999 (21). This method uses supplementation with oleic acid (OA) and taurocholate (TC) at a 1.6:1.0 mM ratio to achieve chylomicrons production. The OA:TC solution was made up in the DMEM based cell growth media used in the BIOCOAT differentiation protocol by adding OA to a 10 mM TC solution and incubated at 37° C. until clear. This was then 0.2 u filtered and used immediately for the transport studies. Treatments plus OA:TC were added in a 450 ul volume to the apical side of the well and incubated for 24 hours for transport studies and chylomicrons production. PBS plus lingind glucose was added in a 1ml volume to the basolateral side. […]

Fluorescein Isothiocyanate [FITC]
uptake / fluorescence, encapsulated FITC and FITC alone (MCF-7 cells [1]): uptake of FITC itself into MCF-7 cells

ipilimumab: CTLA-4 antibody
overall tumor response (OR) rate (melanoma): 11%

semaglutide: a GLP-1 agonist under development by Novo Nordisk
oral bioavailability [2]: 2.5%

Insulin: Human Recombinant Insulin made in bacteria
signs of drug toxicity or severe hypoglycemia [3]: No signs of drug toxicity or severe hypoglycemia | tolerability ([3]; oral and SC (cholestosome), SC (regular insulin)): well tolerated | stability across operating temperature range ([4]; between 40 and 55 degrees centigrade): stable | temperature up to which insulin remains stable ([4]; under certain conditions): up to 55 °C | Insulin solubility ([5]; pH 8.0): high | integrity of insulin by HPLC analysis ([5]; pH (8) environment): breaks down the insulin A/B Dimer | oral bioavailability of insulin [6]: 17-20%

CC(C)C[C@@H](C=O)NC(=O)[C@H](CC(C)C)NC(=O)[C@H](CC(C)C)NC(=O)OCc1ccccc1 [MG-132] (Cbz-Leu-Leu-Leu-aldehyde)
effect on exocytosis of insulin-cholestosomes (MCF-7 cells [7]): caused the likely exocytosis of more intact insulin-cholestosomes

FITC-insulin: FITC labeled regular insulin purchased commercially, unencapsulated
FITC signal found in the Caco-2 cells (Caco-2 cells; Caco-2): about 1% | FITC signal remaining on the apical side (Caco-2 cells; human, Caco-2, 24 h): ~100%

Aspart Insulin
oral bioavailability of insulin [6]: 17%

acid protected insulin: insulin protected from acid but not cholestosome encapsulated, Caco-2 control
insulin passing the apical Caco-2 barrier (Caco-2 cells; Caco-2): < 5%
